Consider one protein from article PMC10294441, “Characterization of 17β-estradiol-degrading enzyme from Microbacterium sp. MZT7 and its function on E2 biodegradation in wastewater” (Microbial Cell Factories, 2023).

Substrate in this data set: C[C@]12CC[C@@H]3c4ccc(O)cc4CC[C@H]3[C@@H]1CC[C@@H]2O
As to the kind of experiment: HPLC of estrone (E1) formation. The format is biochemical, Microbacterium resistens. Particulars: NAD+ (500 μM in the general assay), pH 7, MSM, 30 °C in the general assay, E2 0.018–0.40 mM.

B1: 17β-HSD-0095 (Microbacterium resistens) (protein)
chain: MPTDPALPDPEPTKGNTMNRYEGRRALVTGGGSGIGQATVLRMLAEGGRVVAADVSPAGLADTVEKAGNAAARLTTVEVNVADEASVKAAVATAVDALGGLDVLVNAAGILRSSHTAETTLEQFETILRVNLVGTFLMIRESIPALLDGQDAAVVNFSSTSAMFAHPYMAAYAASKGGVQSMTHALAAEYAKQGIRFTAVQPGSISSGMTDGSGRSGQSAGPGLPEDADMSLFLKLAPAIGQGFAGPEAVAGVVAMLASADGAFITGTEVRIDGGTHF
notes: about 35 kDa on SDS-PAGE
On to B1, for which the Michaelis-Menten constant (Km) came out at 480 µM.

Broadly, the Km is the concentration of substrate that gives half-maximal velocity.
